Data on 18 molecules can be found in patent publication US20240270825A1 (CENTIVAX, published 2024).

In assay [1] the target is T1, MERS Receptor Binding Domain (RBD) protein (Middle East Respiratory Syndrome (MERS) …, UniProt K9N5Q8 367-606).
T1 construct: also called Middle East Respiratory Syndrome (MERS) virus
T1 sequence: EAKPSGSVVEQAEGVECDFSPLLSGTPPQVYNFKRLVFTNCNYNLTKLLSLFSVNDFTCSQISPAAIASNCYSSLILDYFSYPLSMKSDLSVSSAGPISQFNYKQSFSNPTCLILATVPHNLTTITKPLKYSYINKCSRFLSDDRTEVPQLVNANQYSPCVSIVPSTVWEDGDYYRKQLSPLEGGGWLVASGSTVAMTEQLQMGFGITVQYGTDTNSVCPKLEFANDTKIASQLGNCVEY
Put plainly: SPR Carterra LSA, scFv captured via anti-V5.

Assay [2] deals with T2, SARS-CoV-1 Receptor Binding Domain (RBD) protein (SARS-CoV-1, UniProt P59594 306-527).
T2 construct: also called SARS1
The experiment in a line: SPR Carterra LSA, scFv captured via anti-V5.

B1: COVID19_P09_B09 (scFv, V domains shown)
VH: QVQLVQSGAEVKKPGSSVKVSCKASGYRFTDYHLHWVRQAPGQGLEWMGGIVPFSGTTNFAQKFQGRVTITADESTSTAYMELSSLRSEDTAVYYCAGGSGETTPMDVWGQGTLVTVSS
VL: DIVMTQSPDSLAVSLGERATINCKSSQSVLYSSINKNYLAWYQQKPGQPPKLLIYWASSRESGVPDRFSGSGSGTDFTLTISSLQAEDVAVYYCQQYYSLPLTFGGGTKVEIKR
Turning to B1, the binding result in assay [1] and in assay [2] was “no binding (tested: 300 nM)” each time.

B2: COVID19_P22_C09 (scFv, V domains shown)
VH: QVQLVQSGAEVKKPGSSVKVSCKASGYNFTDYHIQWVRQAPGQGLEWVGMIIPRHGGTAYAQRFQGRVTITADESTSTAYMELSSLRSEDTAVYYCAGGSGLTTPMDVWGQGTLVTVSS
VL: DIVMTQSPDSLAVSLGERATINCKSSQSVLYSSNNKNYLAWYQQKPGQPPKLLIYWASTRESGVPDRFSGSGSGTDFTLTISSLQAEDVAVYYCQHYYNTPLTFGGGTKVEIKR
As to B2, the binding result in assay [1] and in assay [2] was “no binding (tested: 300 nM)” throughout.

B3: COVID19_P10_B10 (scFv, V domains shown)
VH: QVQLVQSGAEVKKPGSSVKVSCKASGYSFSDYHVHWVRQAPGQGLEWVGMIIPRHGGTAYAQKFQGRVTITADESTSTAYMELSSLRSEDTAVYYCAGGSGISTPMDVWGQGTLVTVSS
VL: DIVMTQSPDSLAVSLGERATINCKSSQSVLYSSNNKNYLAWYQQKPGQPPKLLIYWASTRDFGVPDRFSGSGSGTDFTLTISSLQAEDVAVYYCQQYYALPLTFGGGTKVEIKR
With B3, the binding result in assay [1] and in assay [2] was “no binding (tested: 300 nM)” throughout.

B4: COVID19_P21_H03 (scFv, V domains shown)
VH: QVQLVQSGAEVKKPGSSVKVSCKASGYTFTNYGINWVRQAPGQGLEWMGWMNPYSGNTGYAQKFQGRVTITADESTSTAYMELSSLRSEDTAVYYCAVLSGISTPMDVWGQGTLVTVSS
VL: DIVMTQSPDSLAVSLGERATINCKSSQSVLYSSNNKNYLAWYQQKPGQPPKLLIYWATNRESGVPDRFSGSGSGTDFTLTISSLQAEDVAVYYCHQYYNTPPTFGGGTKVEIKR
Consider B4, for which the binding result in assay [1] and in assay [2] was “no binding (tested: 300 nM)” each time.

B5: COVID19_P21_B02 (scFv, V domains shown)
VH: QVQLVQSGAEVKKPGSSVKVSCKASGYTFTNYGINWVRQAPGQGLEWMGWMNPNSGNTGYAQKFQGRVTITADESTSTAYMELSSLRSEDTAVYYCAAVSGISTPMDVWGQGTLVTVSS
VL: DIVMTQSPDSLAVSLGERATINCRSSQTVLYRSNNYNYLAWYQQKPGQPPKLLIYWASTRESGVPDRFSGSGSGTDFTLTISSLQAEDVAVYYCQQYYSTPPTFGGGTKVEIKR
For the molecule B5, the binding result in assay [1] and in assay [2] was “no binding (tested: 300 nM)” each time.

B6: COVID19_P09_G12 (scFv, V domains shown)
VH: QVQLVQSGAEVKKPGSSVKVSCKASGYPFTNYGISWVRQAPGQGLEWMGWMNPNSGNTGYAQKFQGRVTITADESTSTAYMELSSLRSEDTAVYYCATLSGISTPMDVWGQGTLVTVSS
VL: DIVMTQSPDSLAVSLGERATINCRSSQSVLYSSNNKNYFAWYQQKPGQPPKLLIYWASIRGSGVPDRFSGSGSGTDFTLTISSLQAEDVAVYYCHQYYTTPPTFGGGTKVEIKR
With B6, the binding result in assay [1] and in assay [2] was “no binding (tested: 300 nM)” each time.

B7: COVID19_P21_E04 (scFv, V domains shown)
VH: QVQLVQSGAEVKKPGSSVKVSCKASGYTFTNYGINWMRQAPGQGLEWMGWMNPNSGNTGYAQKFQGRVTITADESTSTAYMELSSLRSEDTAVYYCAGGSGISTPMDVWGQGTLVTVSS
VL: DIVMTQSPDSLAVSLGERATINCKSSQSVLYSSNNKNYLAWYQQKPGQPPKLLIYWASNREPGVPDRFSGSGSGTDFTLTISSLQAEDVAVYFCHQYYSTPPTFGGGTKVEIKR
Regarding B7, the binding result in assay [1] and in assay [2] was “no binding (tested: 300 nM)” each time.

B8: COVID19_P22_F04 (scFv, V domains shown)
VH: QVQLVQSGAEVKKPGSSVKVSCKASGGGFITYWIGWVRQAPGQGLEWMGIIYPGDGEARYSQKFQGRVTITADESTSTAYMELSSLRSEDTAVYYCAGGSGISTPMDVWGQGTLVTVSS
VL: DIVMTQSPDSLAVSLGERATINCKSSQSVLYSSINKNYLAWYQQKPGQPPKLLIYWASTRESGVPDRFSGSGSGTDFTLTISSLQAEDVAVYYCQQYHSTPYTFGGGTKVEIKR
For the molecule B8, the binding result in assay [1] and in assay [2] was “no binding (tested: 300 nM)” in each case.

B9: COVID19_P21_A08 (scFv, V domains shown)
VH: QVQLVQSGAEVKKPGSSVKVSCKASGGTFITYWIGWVRQAPGQGLEWMGWINPNSGGTNYAQKFQGRVTITADESTSTAYMELSSLRSEDTAVYYCAGGSGISTPMDVWGQGTLVTVSS
VL: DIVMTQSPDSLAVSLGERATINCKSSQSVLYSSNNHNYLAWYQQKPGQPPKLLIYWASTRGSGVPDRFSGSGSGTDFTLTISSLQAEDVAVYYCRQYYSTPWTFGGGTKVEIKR
Regarding B9, the binding result in assay [1] and in assay [2] was “no binding (tested: 300 nM)” throughout.

B10: COVID19_P09_H09 (scFv, V domains shown)
VH: QVQLVQSGAEVKKPGSSVKVSCKASGGTFITYWIYWVRQAPGQGLEWMGIIYPGDGEARYSQKFYGRVTITADESTSTAYMELSSLRSEDTAVYYCAGSGGISTPMDVWGQGTLVTVSS
VL: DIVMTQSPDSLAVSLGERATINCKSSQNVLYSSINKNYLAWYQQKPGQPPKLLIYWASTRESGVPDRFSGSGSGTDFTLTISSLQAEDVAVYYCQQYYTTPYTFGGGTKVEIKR
Take B10: the binding result in assay [1] and in assay [2] was “no binding (tested: 300 nM)” in each case.

B11: COVID19_P10_D08 (scFv, V domains shown)
VH: QVQLVQSGAEVKKPGSSVKVSCKASGGTFNSHAISWVRQAPGQGLEWMGWINPNSGATNYAQKFQGRVTITADESTSTAYMELSSLRSEDTAVYYCAGGSGISTPVGVWGQGTLVTVSS
VL: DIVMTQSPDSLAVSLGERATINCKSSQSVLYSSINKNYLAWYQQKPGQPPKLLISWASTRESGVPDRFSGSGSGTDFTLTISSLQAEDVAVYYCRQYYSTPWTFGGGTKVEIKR
Turning to B11, the binding result in assay [1] and in assay [2] was “no binding (tested: 300 nM)” in each case.

B12: COVID19_P22_B04 (scFv, V domains shown)
VH: QVQLVQSGAEVKKPGSSVKVSCKASGYGFITYWIGWVRQAPGQGLEWMGIIYPGDSETRYAQKFQGRVTITADESTSTAYMELSSLRSEDTAVYYCAGGEGISTPMDVWGQGTLVTVSS
VL: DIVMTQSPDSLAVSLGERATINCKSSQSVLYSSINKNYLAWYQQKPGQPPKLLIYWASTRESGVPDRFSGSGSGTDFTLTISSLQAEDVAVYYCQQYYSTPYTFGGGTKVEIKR
Turning to B12, the binding result in assay [1] and in assay [2] was “no binding (tested: 300 nM)” throughout.

B13: COVID19_P09_C05 (scFv, V domains shown)
VH: QVQLVQSGAEVKKPGSSVKVSCKASGYSFSDYYIHWVRQAPGQGLEWMGWIDPNSGGTNYAQKFQGRVTITADESTSTAYMELSSLRSEDTAVYYCAGGSGISTPMDVWGQGTLVTVSS
VL: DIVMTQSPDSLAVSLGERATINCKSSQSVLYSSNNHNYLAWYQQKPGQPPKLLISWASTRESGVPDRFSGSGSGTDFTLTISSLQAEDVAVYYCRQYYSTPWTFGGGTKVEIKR
Consider B13, for which the binding result in assay [1] and in assay [2] was “no binding (tested: 300 nM)” in each case.

B14: COVID19_P09_D06 (scFv, V domains shown)
VH: QVQLVQSGAEVKKPGSSVKVSCKASGYGFITYWIGWVRQAPGQGLEWMGIIYPGDSETRYAQKFQGRVTITADESTSTAYMELSSLRSEDTAVYYCAGGSGIYVPMDVWGQGTLVTVSS
VL: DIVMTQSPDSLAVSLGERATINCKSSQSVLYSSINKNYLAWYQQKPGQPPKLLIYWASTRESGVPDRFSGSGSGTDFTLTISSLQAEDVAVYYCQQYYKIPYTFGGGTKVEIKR
On to B14, for which the binding result in assay [1] and in assay [2] was “no binding (tested: 300 nM)” throughout.

B15: COVID19_P10_C05 (scFv, V domains shown)
VH: QVQLVQSGAEVKKPGSSVKVSCKASGGTFITYWIGWVRQAPGQGLEWMGIIYPGDGEARYSQKFQGRVTITADESTSTAYMELSSLRSEDTAVYYCAGSGGISTPMDVWGQGTLVTVSS
VL: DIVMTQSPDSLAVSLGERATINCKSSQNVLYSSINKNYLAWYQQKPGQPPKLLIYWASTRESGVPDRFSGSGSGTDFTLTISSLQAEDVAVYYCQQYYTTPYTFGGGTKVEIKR
Turning to B15, the binding result in assay [1] and in assay [2] was “no binding (tested: 300 nM)” throughout.

B16: COVID19_P22_E06 (scFv, V domains shown)
VH: QVQLVQSGAEVKKPGSSVKVSCKASGGGFITYWIGWVRQAPGQGLEWMGIIYPGDSETRYSQKFQGRVTITADESTSTAYMELSSLRSEDTAVYYCAGGSGISSDMDVWGQGTLVTVSS
VL: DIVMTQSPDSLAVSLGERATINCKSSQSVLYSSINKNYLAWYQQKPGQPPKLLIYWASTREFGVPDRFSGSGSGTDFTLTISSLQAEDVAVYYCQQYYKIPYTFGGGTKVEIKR
Turning to B16, the binding result in assay [1] and in assay [2] was “no binding (tested: 300 nM)” each time.

B17: COVID19_P22_F11 (scFv, V domains shown)
VH: QVQLVQSGAEVKKPGSSVKVSCKASGGGFITYWISWVRQAPGQGLEWMGIIYPGDGEARYSQKFQGRVTITADESTSTAYMELSSLRSEDTAVYYCAGGSGIIQPMDVWGQGTLVTVSS
VL: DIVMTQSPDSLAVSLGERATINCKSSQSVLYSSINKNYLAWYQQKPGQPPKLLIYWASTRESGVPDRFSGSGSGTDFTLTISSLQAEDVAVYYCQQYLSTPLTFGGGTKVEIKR
For B17, the binding result in assay [1] and in assay [2] was “no binding (tested: 300 nM)” throughout.

B18: COVID19_P22_G12 (scFv, V domains shown)
VH: QVQLVQSGAEVKKPGSSVKVSCKASGGGFITYWIGWVRQAPGQGLEWMGIIYPGDSETRYSQKFQGRVTITADESTSTAYMELSSLRSEDTAVYYCAGGSGISTPMDVWGQGTLVTVSS
VL: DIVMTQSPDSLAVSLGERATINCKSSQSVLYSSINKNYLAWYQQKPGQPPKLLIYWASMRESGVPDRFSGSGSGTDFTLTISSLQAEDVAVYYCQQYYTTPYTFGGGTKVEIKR
As to B18, the binding result in assay [1] and in assay [2] was “no binding (tested: 300 nM)” in each case.
